Measurements as given in the Human Domainome abundance scans (Beltran et al. 2025).

B1: Tudor domain-containing protein 3, residues 554 to 611; numbered along this chain, Q9H7E2 (parent)
chain: KMWKPGDECFALYWEDNKFYRAEVEALHSSGMTAVVKFIDYGNYEEVLLSNIKPIQTE

Variants of: B1
Assay: abundance fitness (aPCA) (normalised: wild type 0, dead -1); higher = more abundant; growth selection in yeast, the domain comes from the species named
Settings: Homo sapiens

Abundance fitness of substitutions, site by site:
S29: T -0.012; Y -0.061; V 0.118; R -0.133; W -0.368
Y41: E 0.042; H 0.028; W -0.029; N 0.035; K 0.103; R 0.108; A 0.134; L -0.045; T 0.132; I 0.076; S 0.118; D 0.055; P -0.446; V -0.025; M -0.086; F 0.162; C -0.019; G 0.07; Q 0.105
Y44: A -0.065; P -0.473; T 0.039; L -0.05; K 0.157; F 0.006; Q -0.206; G -0.767; C 0.097; N -0.111; H -0.13; E 0.012; R 0.171; M 0.09; D -0.468; V 0.103; I -0.015; S 0.135
V47: E -0.925; I -0.134; R -0.937; T -0.966; H -0.733; C -0.296; S -0.926; L -0.433; F -0.636; M -0.821; D -0.729; P -0.893; Q -0.714; W -0.846; Y -0.886; G -0.873; A -0.815
I39: M -0.093; C -0.081; R -0.097; T -0.034; Q -0.082; Y -0.006; W -0.361; G -0.361; D -0.469; K 0.044; N -0.255; A -0.036; P -0.278; S -0.111; L -0.05; F -0.083
A34: R -0.85; Q -0.575; M -0.358; N -0.781; W -0.882; T -0.948; D -0.931; E -0.976; V -0.078; S -0.73; Y -0.897; C -0.072; P -1.04; G -0.413; H -0.861; F -0.919; I -0.76; K -0.646; L -0.404
L49: R -0.708; P -0.922; Q -0.583; V -0.046; S -0.645; K -0.774; C -0.243; I -0.026; E -0.924; F -0.602; G -0.954; N -1.05; D -0.886; W -0.629; M -0.032; Y -0.464
D40: N -0.187
G42: K -0.407; M -0.319; R -0.607; V -0.926; L -0.492; A -0.305; Q -0.345; P -0.11; D 0.059; T -0.736; E 0.005; H -0.395; W -0.695; S -0.378; C -0.315
S50: A 0.019; E -0.118; C -0.08; D 0.026
E46: Y -0.324; D -0.149; L -0.327; R -0.138; P -0.465; H -0.308; G -0.88; I -0.488; Q -0.055; F -0.697; M -0.342; W -0.259; K -0.205; S -0.029; C -0.279
E45: G -0.101; K -0.43; F -0.768; N -0.368; V -0.392; M -0.586; Y -0.38; T -0.398; L -0.53; C -0.262; W -0.788; H -0.333; P -1.02; Q -0.13; A -0.041; I -0.975; R -0.107
V36: G -0.833; K -0.843; I -0.295; F -0.964; S -0.913
